Results on 4 substances are retold here after PMC8385992.

Assay in all cases: SEC
The target of assay [1] is SARS-CoV-2 Nsp15 Y343A (SARS-CoV-2).
For assay [2], the target named is SARS-CoV-2 Nsp15 S294A (SARS-CoV-2).
The target in assay [3] is SARS-CoV-2 Nsp15 N278A (SARS-CoV-2).
The target in assay [4] is SARS-CoV-2 Nsp15 W333A (SARS-CoV-2).

SARS-CoV-2 Nsp15 Y343A (enzyme) gave a stoichiometry N in assay [1] of 6.
Substance SARS-CoV-2 Nsp15 S294A (enzyme) came in with a stoichiometry N in assay [2] of 6.
The substance SARS-CoV-2 Nsp15 N278A (enzyme) had a stoichiometry N in assay [3] of 6.
In the case of SARS-CoV-2 Nsp15 W333A (enzyme), the stoichiometry N in assay [4] is 6.
